Experimental findings from paper PMC10150220 are described below.

This assay deals with GST-FKBP12. Description: AUC; sedimentation equilibrium of GST-FKBP12, seven serial two-fold dilutions from 320 µM, 3000-12 000 r.p.m., about 14 h, absorbance at 230 and 280 nm, Sedphat.

Usually stoichiometry N stands for the number of molecules, sites or subunits per partner or assembly. Take GST-FKBP12: the stoichiometry N is 2.
